Patent US20250270319A1 (Alector, published 2025)
Changes are numbered by the printed parent chain.

B1: anti-CD33 antibody 6C7H12 (antibody, V domains shown)
VH: EVQLVESGGGLVQPGGSLRLSCAGSGFTFSNYGMNWVRQAPGKGLEWVAEIRLKSNNYVTNYAASVKGRFTISRDDSKNSVYLQMNSLKTEDTGVYYCTRAGYYVPFAYWGQGTLVTVSS
VL: QLVLTQSPSASASLGASVKLTCTLSSQHSTYTIEWYQQQPEKGPRYLMELKKEGSHSTGDGIPDRFSGSSSGAERYLTISSLQSEDEADYYCGVGDTIKEQFVYVFGGGTKLTVL
notes: VH/VL only
B2: anti-CD33 antibody 6C7H18 (antibody, V domains shown)
VH: B1 VH with G33H
VL: B1 VL
notes: VH/VL only
B3: anti-CD33 antibody 6C7H20 (antibody, V domains shown)
VH: B1 VH with G33P
VL: B1 VL
notes: VH/VL only
B4: anti-CD33 antibody 6C7H21 (antibody, V domains shown)
VH: B1 VH with G33Q
VL: B1 VL
notes: VH/VL only
B5: anti-CD33 antibody 6C7H16 (antibody, V domains shown)
VH: B1 VH with G33L
VL: B1 VL
notes: VH/VL only
B6: anti-CD33 antibody 6C7H24 (antibody, V domains shown)
VH: B1 VH with G33N
VL: B1 VL
notes: VH/VL only
B7: anti-CD33 antibody 6C7H28 (antibody, V domains shown)
VH: B1 VH with N31D, G33S
VL: B1 VL
notes: VH/VL only
B8: anti-CD33 antibody 6C7H14 (antibody, V domains shown)
VH: B1 VH with G33A
VL: B1 VL
notes: VH/VL only
B9: anti-CD33 antibody 6C7H25 (antibody, V domains shown)
VH: B1 VH with G33E
VL: B1 VL
notes: VH/VL only
B10: anti-CD33 antibody 6C7H29 (antibody, V domains shown)
VH: B1 VH with N31A, G33S
VL: B1 VL
notes: VH/VL only
B11: anti-CD33 antibody 6C7H17 (antibody, V domains shown)
VH: B1 VH with G33Y
VL: B1 VL
notes: VH/VL only
B12: anti-CD33 antibody 6C7H23 (antibody, V domains shown)
VH: B1 VH with G33V
VL: B1 VL
notes: VH/VL only
B13: anti-CD33 antibody 6C7H26 (antibody, V domains shown)
VH: B1 VH with G33I
VL: B1 VL
notes: VH/VL only
B14: anti-CD33 antibody 6C7H15 (antibody, V domains shown)
VH: B1 VH with G33S
VL: B1 VL
notes: VH/VL only
B15: anti-CD33 antibody 6C7H49 (antibody, V domains shown)
VH: B1 VH with G24A, N31E, G33D, N35L, A49G
VL: B1 VL with L2P, D96V
notes: VH/VL only
B16: anti-CD33 antibody 6C7H33 (antibody, V domains shown)
VH: B1 VH with G24A, F27S, N31E, G33D, N35L, A49G
VL: B1 VL with V3M, E41G, D96H
notes: VH/VL only
B17: anti-CD33 antibody 6C7H32 (antibody, V domains shown)
VH: B1 VH with G24A, F27S, N31E, G33D, N35L, A49G
VL: B1 VL with V3M, E41G, D96H, V105E
notes: VH/VL only
B18: anti-CD33 antibody 6C7H35 (antibody, V domains shown)
VH: B1 VH with G24A, N31E, G33A, N35L, A49G, A108T
VL: B1 VL with L2P, D96V
notes: VH/VL only
B19: anti-CD33 antibody 6C7H34 (antibody, V domains shown)
VH: B1 VH with G24A, F27S, N31E, G33D, N35L, A49G
VL: B1 VL with L2P, V3M, E41G, D96L
notes: VH/VL only
B20: anti-CD33 antibody 6C7H31 (antibody, V domains shown)
VH: B1 VH with G24A, F27S, N31E, G33D, N35L, A49G
VL: B1 VL with L2P, D96V
notes: VH/VL only
B21: anti-CD33 antibody 6C7H41 (antibody, V domains shown)
VH: B1 VH with G24A, N31E, G33D, N35L, A49G, S77T
VL: B1 VL with V3M, E41G, D96H
notes: VH/VL only
B22: anti-CD33 antibody 6C7H39 (antibody, V domains shown)
VH: B1 VH with G24A, N31E, G33D, N35L, A49G, S77T
VL: B1 VL with L2P, D96V
notes: VH/VL only
B23: anti-CD33 antibody 6C7H36 (antibody, V domains shown)
VH: B1 VH with G24A, N31E, G33A, N35L, A49G, A108T
VL: B1 VL with V3M, E41G, D96H, V105E
notes: VH/VL only
B24: anti-CD33 antibody 6C7H40 (antibody, V domains shown)
VH: B1 VH with G24A, N31E, G33D, N35L, A49G, S77T
VL: B1 VL with V3M, E41G, D96H, V105E
notes: VH/VL only
B25: anti-CD33 6C7 chimeric antibody (antibody, V domains shown)
VH: EVKLEESGGGLVQPGGSMKLSCVGSGFTFSNYCMNWVRQSPEKGLEWVAEIRLKSNNYVTNYVESVKGRFTISRDDSKSRVYLQMNNLRGEDTGFYYCTRDGYYVPFAYWGQGTLVTVSA
VL: QLVLTQSSSASFSLGASAKLTCTLSSQHSTYTIEWYQQQPLKPPKYVMELKKDGSHSTGDGIPDRFSGSSSGADRYLSISNIQPEDEAIYICGVGDTIKEQFVYVFGGGTKVTVL
notes: detected with anti-human IgG; also called 6C7 Chimeric Ab

target: T1, recombinant human CD33 protein (Sino Biologicals) (human, UniProt P20138 18-259); experiment: BLI (ForteBio), antibody on anti-human Fc sensor, CD33 10 nM
T1 construct: Bought protein; also called recombinant CD33
Experimental: Affinity parameters of the antibody variants for human CD33 were measured by BioLayer Interferometry in a ForteBio assay according to standard techniques (Estep et al. (2013) MAbs 5(2): 270-8) and were compared to those of the parental antibody (antibody 6C7H8) and the parental humanized antibody (antibody 6C71H5). Briefly, the antibodies were captured on anti-human Fc Biosensors (Pall ForteBio). Recombinant human CD33 (10 nM, Sino Biologicals) was then bound to the captured anti-CD33 surface (200 s association time, 1200 s dissociation time). Local fitting was used to extract association and dissociation rate constants (kₐ and kd, respectively) for each antibody. Apparent affinity constants (KD) were calculated from the ratio kd/kₐ.

T1 sequence (P20138 18-259 limits assumed): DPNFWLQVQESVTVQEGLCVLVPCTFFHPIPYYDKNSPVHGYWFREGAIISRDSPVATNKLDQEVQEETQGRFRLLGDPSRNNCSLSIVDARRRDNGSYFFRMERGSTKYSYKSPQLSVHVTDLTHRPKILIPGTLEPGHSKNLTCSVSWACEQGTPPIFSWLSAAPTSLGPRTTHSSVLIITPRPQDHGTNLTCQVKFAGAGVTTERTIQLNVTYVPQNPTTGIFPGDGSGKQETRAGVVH

Binder | Kd [nM] | koff [s⁻¹] | kon [M⁻¹ s⁻¹]
B1 | 0.926 | 0.000694 | 749000
B2 | 0.609 | 0.00064 | 1.05e+06
B3 | 0.619 | 0.000457 | 739000
B4 | 0.528 | 0.000263 | 498000
B5 | 0.782 | 0.00102 | 1.3e+06
B6 | 0.552 | 0.000757 | 1.37e+06
B7 | 0.76 | 0.000859 | 1.13e+06
B8 | 0.805 | 0.000798 | 991000
B9 | 0.246 | 0.00013 | 529000
B10 | 0.991 | 0.000868 | 875000
B11 | 0.853 | 0.000523 | 613000
B12 | 0.558 | 0.000691 | 1.24e+06
B13 | 0.718 | 0.000944 | 1.32e+06
B14 | 1.03 | 0.000825 | 801000

target: T2, human CD33 on primary human dendritic cells (human, UniProt P20138 18-364); experiment: cell-based or functional assay
T2 sequence (P20138 18-364): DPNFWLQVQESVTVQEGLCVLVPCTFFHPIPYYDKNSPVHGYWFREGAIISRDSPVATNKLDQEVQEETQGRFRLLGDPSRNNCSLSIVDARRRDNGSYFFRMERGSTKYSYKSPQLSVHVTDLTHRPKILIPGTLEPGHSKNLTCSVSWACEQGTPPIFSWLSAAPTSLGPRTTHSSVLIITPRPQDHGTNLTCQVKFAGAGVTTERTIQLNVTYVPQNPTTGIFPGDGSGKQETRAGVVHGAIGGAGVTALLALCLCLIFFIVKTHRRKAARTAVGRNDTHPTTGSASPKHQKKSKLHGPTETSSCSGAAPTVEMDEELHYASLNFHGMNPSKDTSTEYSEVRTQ

Binder | Fold increase in potency compared to 6C7H5 [fold] | Maximal reduction in CD33 (% remaining) | Receptor downregulation, (EC50) (pM)
B1 | 0.3 | 27.5 | 160
B2 | 0.3 | 29.2 | 148
B3 | 1 | 29 | 40.8
B4 | 1.2 | 28.3 | 34.7
B5 | 0.1 | 28 | 305
B6 | 0.1 | 22.5 | 319
B7 | 0.3 | 27.6 | 147
B8 | 0.3 | 28.4 | 164
B9 | 1.6 | 30.3 | 27.6
B10 | 0.3 | 27.3 | 134
B11 | 0.8 | 32.1 | 51.9
B12 | 0.4 | 26.2 | 120
B13 | 0.2 | 28.3 | 175
B14 | 0.2 | 27.7 | 252

target: T2, human CD33 on primary human dendritic …; experiment: cell-based or functional assay; remark: another data set of the same source

Binder | Fold increase in potency compared to 6C7H5 [fold] | Receptor downregulation, (EC50) (pM)
B15 | 0.6 | 69.7
B16 | 0.8 | 50
B17 | 0.9 | 47.2
B18 | 0.8 | 51
B19 | 0.7 | 60.3
B20 | 0.6 | 67.7
B21 | 1.2 | 34.2
B22 | 1.1 | 38.7
B23 | 0.9 | 49.1
B24 | 1.1 | 37.2

target: T3, recombinant cynomolgus CD33 protein (NovoProtein) (cynomolgus); experiment: ELISA, plate coated with recombinant CD33
T3 construct: Bought protein; also called cyno CD33
T3 sequence (chain, as listed by the source limits assumed): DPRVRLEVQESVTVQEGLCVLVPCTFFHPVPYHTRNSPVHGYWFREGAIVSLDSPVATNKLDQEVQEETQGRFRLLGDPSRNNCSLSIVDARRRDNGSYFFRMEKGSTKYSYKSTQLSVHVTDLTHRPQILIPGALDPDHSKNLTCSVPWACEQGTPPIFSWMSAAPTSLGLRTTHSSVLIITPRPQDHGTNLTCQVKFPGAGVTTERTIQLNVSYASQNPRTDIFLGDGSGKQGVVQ

Binder | EC50 [nM] | Relative maximal binding (cyno/human) | Relative potency (human/cyno)
B23 | 4 | 0.34 | 0.03
B25 | 2.96 | 0.47 | 0.06

target: T1, recombinant human CD33 protein (Sino …); experiment: ELISA, plate coated with recombinant CD33

Binder | EC50 [nM]
B15 | 0.3
B16 | 0.17
B4 | 0.16
B17 | 0.2
B18 | 0.21
B19 | 0.17
B20 | 0.21
B21 | 0.23
B22 | 0.23
B23 | 0.13
B24 | 0.19
